This assay concerns the target RQR8. As to the kind of experiment: cell-based or functional assay.

This passage reports eGFP positive cells in the sorted fraction (K562 cells, human rituximab on protein-A beads), transduced target cells with LV sorted with beads (RDpro pseudotyped LV) and transduced target cells with the purified fraction (VSV-G pseudotyped LV) results from US20170240920A1.

For the substance “clinical grade human-rituximab (antibody)”, the eGFP positive cells in the sorted fraction (K562 cells, human rituximab on protein-A beads) was determined as 89.4%; the transduced target cells with LV sorted with beads (RDpro pseudotyped LV) came out at 14.1%; the transduced target cells with the purified fraction (VSV-G pseudotyped LV) was found to be 73.6%.
